B1: E3 ubiquitin-protein ligase COP1 (Arabidopsis thaliana (Mouse-ear cress)), P43254 (parent)
chain: MEEISTDPVVPAVKPDPRTSSVGEGANRHENDDGGSGGSEIGAPDLDKDLLCPICMQIIKDAFLTACGHSFCYMCIITHLRNKSDCPCCSQHLTNNQLYPNFLLDKLLKKTSARHVSKTASPLDQFREALQRGCDVSIKEVDNLLTLLAERKRKMEQEEAERNMQILLDFLHCLRKQKVDELNEVQTDLQYIKEDINAVERHRIDLYRARDRYSVKLRMLGDDPSTRNAWPHEKNQIGFNSNSLSIRGGNFVGNYQNKKVEGKAQGSSHGLPKKDALSGSDSQSLNQSTVSMARKKRIHAQFNDLQECYLQKRRQLADQPNSKQENDKSVVRREGYSNGLADFQSVLTTFTRYSRLRVIAEIRHGDIFHSANIVSSIEFDRDDELFATAGVSRCIKVFDFSSVVNEPADMQCPIVEMSTRSKLSCLSWNKHEKNHIASSDYEGIVTVWDVTTRQSLMEYEEHEKRAWSVDFSRTEPSMLVSGSDDCKVKVWCTRQEASVINIDMKANICCVKYNPGSSNYIAVGSADHHIHYYDLRNISQPLHVFSGHKKAVSYVKFLSNNELASASTDSTLRLWDVKDNLPVRTFRGHTNEKNFVGLTVNSEYLACGSETNEVYVYHKEITRPVTSHRFGSPDMDDAEEEAGSYFISAVCWKSDSPTMLTANSQGTIKVLVLAA
partner: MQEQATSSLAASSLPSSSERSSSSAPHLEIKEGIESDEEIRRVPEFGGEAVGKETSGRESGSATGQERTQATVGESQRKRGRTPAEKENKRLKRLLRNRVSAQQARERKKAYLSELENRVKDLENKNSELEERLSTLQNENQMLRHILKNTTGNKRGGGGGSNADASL
B2: E3 ubiquitin-protein ligase COP1 (Arabidopsis thaliana (Mouse-ear cress)), P43254 (parent)
chain: B1 chain
partner: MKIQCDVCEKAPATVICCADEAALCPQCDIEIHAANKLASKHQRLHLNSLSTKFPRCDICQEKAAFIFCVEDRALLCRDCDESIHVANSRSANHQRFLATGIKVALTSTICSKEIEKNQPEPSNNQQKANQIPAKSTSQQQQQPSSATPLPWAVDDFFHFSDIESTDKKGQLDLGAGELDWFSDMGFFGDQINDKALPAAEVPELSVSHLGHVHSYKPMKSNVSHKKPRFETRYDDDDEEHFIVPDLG
B3: E3 ubiquitin-protein ligase COP1 (Arabidopsis thaliana (Mouse-ear cress)), P43254 (parent)
chain: B1 chain
partner: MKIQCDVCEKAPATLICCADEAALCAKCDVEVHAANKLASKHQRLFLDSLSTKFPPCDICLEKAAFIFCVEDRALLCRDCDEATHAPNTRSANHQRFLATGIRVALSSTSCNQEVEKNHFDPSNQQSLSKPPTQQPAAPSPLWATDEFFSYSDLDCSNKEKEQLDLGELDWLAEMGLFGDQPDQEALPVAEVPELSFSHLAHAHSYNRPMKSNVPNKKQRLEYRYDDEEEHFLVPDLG
B4: Transcription factor HY5 (Arabidopsis thaliana (Mouse-ear cress)), O24646 (parent)
chain: B1 partner
partner: B1 chain
B5: B-box zinc finger protein 25 (Arabidopsis thaliana (Mouse-ear cress)), Q9SID1 (parent)
chain: B3 partner
partner: B1 chain

Variants of: B1
Conditions: with hy5_arath HY5, O24646

Variant	effect of a mutation on the interaction
W467A	decreasing interaction
K422E	increasing interaction

Continued, values first:

effect of a mutation on the interaction	Variant
increasing interaction	E592R
decreasing interaction	K550E
decreasing interaction	G524E

Variants of: B2
Conditions: with BBX24, Q96288-1

Variant	effect of a mutation on the interaction
K422E	decreasing interaction
R465E	decreasing interaction

The next lines start with the values.

effect of a mutation on the interaction	Variant
decreasing interaction	K550E
decreasing interaction	W467A
increasing interaction	E592R
decreasing interaction	G524E

Variants of: B3
Conditions: with bbx25_arath BBX25, Q9SID1

Variant	effect of a mutation on the interaction
K422E	decreasing interaction
R465E	decreasing interaction

Further lines, results first:

effect of a mutation on the interaction	Variant
increasing interaction	E592R
decreasing interaction	K550E
decreasing interaction	G524E
decreasing interaction	W467A

Variants of: B4
Conditions: with cop1_arath COP1, P43254

effect of a mutation on the interaction	Variant
decreasing interaction	MQEQATSSLAASSLPSSSERSSSSAPHLEIKEGIESDEEIRRAAEFGGEAVGKETSGRESGSATGQERTQATVGESQRKRGRTPAEKENKRLKRLLRNRVSAQQARERKKAYLSELENRVKDLENKNSELEERLSTLQNENQMLRHILKNTTGNKRGGGGGSNADASL [V43A;P44A]

Variants of: B5
Conditions: with cop1_arath COP1, P43254

effect of a mutation on the interaction	Variant
decreasing interaction	MKIQCDVCEKAPATLICCADEAALCAKCDVEVHAANKLASKHQRLFLDSLSTKFPPCDICLEKAAFIFCVEDRALLCRDCDEATHAPNTRSANHQRFLATGIRVALSSTSCNQEVEKNHFDPSNQQSLSKPPTQQPAAPSPLWATDEFFSYSDLDCSNKEKEQLDLGELDWLAEMGLFGDQPDQEALPVAEVPELSFSHLAHAHSYNRPMKSNVPNKKQRLEYRYDDEEEHFLAADLG [V234A;P235A]

— IntAct's records for PubMed 11226162
